The text below walks through data of patent US6482799B1, “Self-preserving multipurpose ophthalmic solutions incorporating a polypeptide antimicrobial” (The Regents of the University of California, priority 1999, dated 2002).

The data set is described as follows: Corneal penetration of radioactive topical ocular indolicidin formulation. The format is in vivo, New Zealand White Rabbits. The procedure:
The objective of this study was to determine the corneal penetration potential of a ^3H-labelled indolicidin molecule. The ^3H labeled L-indolicidin; L-IND was tested for corneal penetration using New Zealand White Rabbits (Western Oregon Rabbit Co.). The rabbit is one of the model species for the assessment of toxicity and is one of the species recommended for that purpose by toxicity testing guidelines of all regulatory agencies. See “Animal Models in the Evaluation of Chemotherapy of Ocular Infections” in Experimental Models in Antimicrobial Chemotherapy, Vol 1, p 187-211.
Administration of ^3H-L-IND was by epicomeal application into both eyes, 20 μL L-IND once hourly for six applications. The animals were euthanized immediately prior to harvesting of aqueous humor.
Male animals were initiated as young adults and weighed 2-3 kg. Two animals were assigned to the test (2/group; one treatment group). […]
Clinical signs were evaluated immediately after 1st dose administration and immediately prior to euthanasia and necroscopy. […]
Evaluations were confined to the eye. […] An estimate of the total volume of aqueous humor harvested was recorded and analyzed for ^3H content. […]
The two samples of aqueous humor from each of the rabbits were analyzed for their radioactivity levels. […]

Where no end group is shown, it is not given here.

Take “^3H-Indolicidin: ^3H-labelled indolicidin molecule for the corneal penetration study (ILPWKWPWWPWRR-NH2; also: tritium label; UniProt P33046 131-143, looked up)”: the “radioactivity level in aqueous humor” value (20 μL epicorneal, once hourly for six applications, both eyes) was “equal to that of background counts”. For the setting “topical ocular, six applications”, the corneal penetration result is “did not penetrate the cornea”.
